B1: MX1045 (bispecific antibody)
chain 1: EIVLTQSPGTLSLSPGETATLSCRASQSFSSDLAWYQQKPGQAPRLLIYGASSRATGIPDRFSGSGSGTDFTLTISRLEPADFAVYYCQQYGSSPPVTFGGGTKVEIKGGSSGQTVVTQEPSFSVSPGGTVTLTCGLSSGSVSTAYFPSWYQQTPGQAPRTLIYGTNTRSSGVPDRFSGSILGNKAALTITGAQADDESDYYCVLYMGRGIVVFGGGTKLTVLGGGGSGGSGSGGGGSASGSGQVQLVESGGGVVQPGRSLRLSCAASGFTLSSYGMHWVRQAPGKGLEWVAVISYDGSNKYYVDSVKGRFTISRDNSKNTLYLQMNSLRAEDTAVYYCRWAYWELLPDYYYGMDVWGQGTTVTVSSGGSSGEVQLVESGGGLIQPGGSLRLSCAASGVIVSYNYMNWVRQAPGKGLEWVSVIYSGGSTFYADSVRGRFTISRDNSKNTLYLQMNSLRAEDTAVYYCARDLGPAGAFDIWGLGTMVTVSSASGGSGDKTHTCPPCPAPELLGGPSVFLFPPKPKDTLMISRTPEVTCVVVDVSHEDPEVKFNWYVDGVEVHNAKTKPREEQYNSYVVSVLTVLHQDWLNGKEYKCKVSNKALPAPIEKTISKAKGQPREPQVYTLPPCRDELTKNQVSLWCLVKGFYPSDIAVEWESNGQPENNYKTTPPVLDSDGSFFKKLTVDKSRWQQGNVFSCSVLHEALHSHYTQKSLSLSPG
chain 2: QTVVTQEPSFSVSPGGTVTLTCGLSSGSVSTAYFPSWYQQTPGQAPRTLIYGTNTRSSGVPDRFSGSILGNKAALTITGAQADDESDYYCVLYMGRGIVVFGGGTKLTVLGGSSGEIVLTQSPGTLSLSPGETATLSCRASQSFSSDLAWYQQKPGQAPRLLIYGASSRATGIPDRFSGSGSGTDFTLTISRLEPADFAVYYCQQYGSSPPVTFGGGTKVEIKGGGGSGGSGSGGGGSASGSGEVQLVESGGGLIQPGGSLRLSCAASGVIVSYNYMNWVRQAPGKGLEWVSVIYSGGSTFYADSVRGRFTISRDNSKNTLYLQMNSLRAEDTAVYYCARDLGPAGAFDIWGLGTMVTVSSGGSSGQVQLVESGGGVVQPGRSLRLSCAASGFTLSSYGMHWVRQAPGKGLEWVAVISYDGSNKYYVDSVKGRFTISRDNSKNTLYLQMNSLRAEDTAVYYCRWAYWELLPDYYYGMDVWGQGTTVTVSSASGGSGDKTHTCPPCPAPELLGGPSVFLFPPKPKDTLMISRTPEVTCVVVDVSHEDPEVKFNWYVDGVEVHNAKTKPREEQYNSYVVSVLTVLHQDWLNGKEYKCKVSNKALPAPIEKTISKAKGQPREPQVCTLPPSRDELTKNQVSLSCAVKGFYPSDIAVEWESNGQPENNYKTTPPVLDSDGSFFLVSKLTVDKSRWQQGNVFSCSVLHEALHSHYTQKSLSLSPG
B2: MX1057 (trispecific antibody)
chain 1: QTVVTQEPSFSVSPGGTVTLTCGLSSGSVSTAYFPSWYQQTPGQAPRTLIYGTNTRSSGVPDRFSGSILGNKAALTITGAQADDESDYYCVLYMGRGIVVFGGGTKLTVLGGSSGDTVMTQSPLSLPVTPGEPASISCRSSQSLLNSNGYNYLDWYVQKPGQSPQLLIYLGSNRASGVPDRFSGSGSGTDFTLKISRVEAEDVGVYYCMQPLQTPLFTFGPGTKVEIKGGGGSGGSGSGGGGSASGSGQVTLRESGPALVKPTQTLTLTCTFSGFSLSTRGVCVSWIRQPPGKALEWLAFIDWDDDKYYNTSLKTRLTISKDTSKNQVVLTMTNVHPVDTATYYCARISSHHGSSWCTTFDYWGQGALVTVSAGGSSGQVQLVESGGGVVQPGRSLRLSCAASGFTLSSYGMHWVRQAPGKGLEWVAVISYDGSNKYYVDSVKGRFTISRDNSKNTLYLQMNSLRAEDTAVYYCRWAYWELLPDYYYGMDVWGQGTTVTVSSASGGSGDKTHTCPPCPAPELLGGPSVFLFPPKPKDTLMISRTPEVTCVVVDVSHEDPEVKFNWYVDGVEVHNAKTKPREEQYNSYVVSVLTVLHQDWLNGKEYKCKVSNKALPAPIEKTISKAKGQPREPQVYTLPPCRDELTKNQVSLWCLVKGFYPSDIAVEWESNGQPENNYKTTPPVLDSDGSFFKKLTVDKSRWQQGNVFSCSVLHEALHSHYTQKSLSLSPG
chain 2: EIVMTQSPAILSVSPGERATLSCRASQSVAINLAWYQQKPGQAPRLLIYAASSRATGIPGRFSGSGSETNFTLTISSLQSGDFAVYYCQQYITWPPSYTFGQGTKLEIKGGSSGDTVMTQSPLSLPVTPGEPASISCRSSQSLLNSNGYNYLDWYVQKPGQSPQLLIYLGSNRASGVPDRFSGSGSGTDFTLKISRVEAEDVGVYYCMQPLQTPLFTFGPGTKVEIKGGGGSGGSGSGGGGSASGSGQVTLRESGPALVKPTQTLTLTCTFSGFSLSTRGVCVSWIRQPPGKALEWLAFIDWDDDKYYNTSLKTRLTISKDTSKNQVVLTMTNVHPVDTATYYCARISSHHGSSWCTTFDYWGQGALVTVSAGGSSGEVQLVESGGALIQPGGSLRLSCAASGIIVSANYMSWVRQAPGKGLEWVSVIYSGGSTFYADSVKGRFTISRDNSKNTLYLEMNSLRAEDTAVYYCARDAPILGVSDWGQGTLVTVSSASGGSGDKTHTCPPCPAPELLGGPSVFLFPPKPKDTLMISRTPEVTCVVVDVSHEDPEVKFNWYVDGVEVHNAKTKPREEQYNSYVVSVLTVLHQDWLNGKEYKCKVSNKALPAPIEKTISKAKGQPREPQVCTLPPSRDELTKNQVSLSCAVKGFYPSDIAVEWESNGQPENNYKTTPPVLDSDGSFFLVSKLTVDKSRWQQGNVFSCSVLHEALHSHYTQKSLSLSPG
B3: MX1058 (trispecific antibody)
chain 1: B2 chain 1
chain 2: DTVMTQSPLSLPVTPGEPASISCRSSQSLLNSNGYNYLDWYVQKPGQSPQLLIYLGSNRASGVPDRFSGSGSGTDFTLKISRVEAEDVGVYYCMQPLQTPLFTFGPGTKVEIKGGSSGEIVMTQSPAILSVSPGERATLSCRASQSVAINLAWYQQKPGQAPRLLIYAASSRATGIPGRFSGSGSETNFTLTISSLQSGDFAVYYCQQYITWPPSYTFGQGTKLEIKGGGGSGGSGSGGGGSASGSGEVQLVESGGALIQPGGSLRLSCAASGIIVSANYMSWVRQAPGKGLEWVSVIYSGGSTFYADSVKGRFTISRDNSKNTLYLEMNSLRAEDTAVYYCARDAPILGVSDWGQGTLVTVSSGGSSGQVTLRESGPALVKPTQTLTLTCTFSGFSLSTRGVCVSWIRQPPGKALEWLAFIDWDDDKYYNTSLKTRLTISKDTSKNQVVLTMTNVHPVDTATYYCARISSHHGSSWCTTFDYWGQGALVTVSAASGGSGDKTHTCPPCPAPELLGGPSVFLFPPKPKDTLMISRTPEVTCVVVDVSHEDPEVKFNWYVDGVEVHNAKTKPREEQYNSYVVSVLTVLHQDWLNGKEYKCKVSNKALPAPIEKTISKAKGQPREPQVCTLPPSRDELTKNQVSLSCAVKGFYPSDIAVEWESNGQPENNYKTTPPVLDSDGSFFLVSKLTVDKSRWQQGNVFSCSVLHEALHSHYTQKSLSLSPG
B4: F770-E8 (antibody, V domains shown)
VH: QVTLRESGPALVKPTQTLTLTCTFSGFSLSTRGVCVSWIRQPPGKALEWLAFIDWDDDKYYNTSLKTRLTISKDTSKNQVVLTMTNVHPVDTATYYCARISSHHGSSWCTTFDYWGQGALVTVSA
VL: DTVMTQSPLSLPVTPGEPASISCRSSQSLLNSNGYNYLDWYVQKPGQSPQLLIYLGSNRASGVPDRFSGSGSGTDFTLKISRVEAEDVGVYYCMQPLQTPLFTFGPGTKVEIK
B5: E76-B8 (antibody, V domains shown)
VH: EVQLVESGGALIQPGGSLRLSCAASGIIVSANYMSWVRQAPGKGLEWVSVIYSGGSTFYADSVKGRFTISRDNSKNTLYLEMNSLRAEDTAVYYCARDAPILGVSDWGQGTLVTVSS
VL: EIVMTQSPAILSVSPGERATLSCRASQSVAINLAWYQQKPGQAPRLLIYAASSRATGIPGRFSGSGSETNFTLTISSLQSGDFAVYYCQQYITWPPSYTFGQGTKLEIK
B6: F769-E12 (antibody, V domains shown)
VH: EVQLVESGGGLIQPGGSLRLSCAASGVIVSYNYMNWVRQAPGKGLEWVSVIYSGGSTFYADSVRGRFTISRDNSKNTLYLQMNSLRAEDTAVYYCARDLGPAGAFDIWGLGTMVTVSS
VL: EIVLTQSPGTLSLSPGETATLSCRASQSFSSDLAWYQQKPGQAPRLLIYGASSRATGIPDRFSGSGSGTDFTLTISRLEPADFAVYYCQQYGSSPPVTFGGGTKVEIK

Target: SARS-CoV-2 Omicron BA.2.75.2 spike protein (SARS-CoV-2)
Test: cell-based or functional assay

Binder | IC50, pseudovirus neutralization [µg/mL] | IC80, pseudovirus neutralization [µg/mL]
B1 | 0.00291 | 0.00543

Target: SARS-CoV-2 Omicron BA.4/5 spike protein (SARS-CoV-2)
Test: cell-based or functional assay

Binder | IC50, pseudovirus neutralization [µg/mL] | IC80, pseudovirus neutralization [µg/mL]
B1 | 0.00268 | 0.00606

Target: SARS-CoV-2 Omicron XBB spike protein (SARS-CoV-2)
Test: cell-based or functional assay

Binder | IC50, pseudovirus neutralization [µg/mL] | IC80, pseudovirus neutralization [µg/mL]
B1 | 0.00609 | 0.018

Target: SARS-CoV-2 Omicron BQ.1 spike protein (SARS-CoV-2)
Test: cell-based or functional assay

Binder | IC50, pseudovirus neutralization [µg/mL] | IC80, pseudovirus neutralization [µg/mL]
B1 | 0.00602 | 0.0223

Target: SARS-CoV-2 Omicron BQ.1.1 spike protein (SARS-CoV-2)
Test: cell-based or functional assay

Binder | IC50, pseudovirus neutralization [µg/mL] | IC80, pseudovirus neutralization [µg/mL]
B1 | 0.0015 | 0.00857

Target: SARS-CoV-2 spike (S) protein, Omicron sublineage XBB (SARS-CoV-2)
Test: cell-based or functional assay

Binder | IC50, pseudovirus neutralization [µg/mL] | IC80, pseudovirus neutralization [µg/mL]
B2 | 0.00639 | 0.0355
B3 | 0.0142 | 0.0318
B4 | 0.0615 | 0.705
B5 | 0.0134 | 0.0472
B6 | 0.0126 | 0.0311

Target: SARS-CoV-2 spike (S) protein, Omicron sublineage BQ.1.1 (SARS-CoV-2)
Test: cell-based or functional assay

Binder | IC50, pseudovirus neutralization [µg/mL] | IC80, pseudovirus neutralization [µg/mL]
B2 | 0.0123 | 0.0561
B3 | 0.00449 | 0.0285
B4 | 0.496 | 1.8
B5 | 0.00457 | 0.0217
B6 | 0.00529 | 0.0174

Target: SARS-CoV-2 spike (S) protein, Omicron sublineage BA.4/5 (SARS-CoV-2)
Test: cell-based or functional assay

Binder | IC50, pseudovirus neutralization [µg/mL] | IC80, pseudovirus neutralization [µg/mL]
B2 | 0.00404 | 0.00742
B3 | 0.00274 | 0.00551
B4 | 0.00013 | 0.00049
B5 | 0.00697 | 0.0148
B6 | 0.00462 | 0.00921

Target: SARS-CoV-2 spike (S) protein, Omicron sublineage BQ.1 (SARS-CoV-2)
Test: cell-based or functional assay

Binder | IC50, pseudovirus neutralization [µg/mL] | IC80, pseudovirus neutralization [µg/mL]
B2 | 0.0083 | 0.0236
B3 | 0.016 | 0.032
B4 | 0.124 | 5.19
B5 | 0.015 | 0.0496
B6 | 0.0119 | 0.0409

Target: SARS-CoV-2 spike (S) protein, Omicron sublineage BA.2.75.2 (SARS-CoV-2)
Test: cell-based or functional assay

Binder | IC50, pseudovirus neutralization [µg/mL] | IC80, pseudovirus neutralization [µg/mL]
B2 | 0.00127 | 0.00379
B3 | 0.00403 | 0.01
B4 | 0.00172 | 0.0059
B5 | 0.0122 | 0.0274
B6 | 0.00699 | 0.0401

— patent US20240109955A1
